According to patent US20200317768A1 (published 2020):
Numbering of substitutions follows the chain as printed.

Assays:
Assay in all cases: SPR (BIACORE); KD of SG1 divided by KD of variant;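 also: relative to parent M103205H795-SG1 carrying the SG1 human heavy chain constant region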
[1] = target: T1, cynomolgus monkey FcγRIIa2 extracellular domain, His-tagged (cynomolgus monkey)
T1 construct: also called cyno FcγRIIa2; cynoFcgRIIa2; not shown: C-terminal His-tag
T1 chain: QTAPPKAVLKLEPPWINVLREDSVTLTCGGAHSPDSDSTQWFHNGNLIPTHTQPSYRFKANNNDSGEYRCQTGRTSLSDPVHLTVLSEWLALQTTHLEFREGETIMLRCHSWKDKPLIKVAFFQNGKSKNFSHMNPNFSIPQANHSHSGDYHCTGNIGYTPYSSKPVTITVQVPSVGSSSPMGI

[2] = target: T2, human FcγRIIaH extracellular domain, His-tagged (human, UniProt P12318 34-217)
T2 construct: also called human FcγRIIa (type H); FcgRIIaH; not shown: C-terminal His-tag
T2 sequence: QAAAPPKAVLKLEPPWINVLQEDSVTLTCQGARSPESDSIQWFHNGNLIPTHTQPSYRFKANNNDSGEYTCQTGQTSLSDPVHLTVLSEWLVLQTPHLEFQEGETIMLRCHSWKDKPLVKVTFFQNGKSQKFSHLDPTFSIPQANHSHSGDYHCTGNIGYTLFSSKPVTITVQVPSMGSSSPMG

[3] = target: T3, cynomolgus monkey FcγRIIa1 extracellular domain, His-tagged (cynomolgus monkey)
T3 construct: also called cyno FcγRIIa1; cynoFcgRIIa1; not shown: C-terminal His-tag
T3 chain: T1 chain with T95P, A121T, K127I, S128A, N130K, N135D, Q142R

[4] = target: T4, cynomolgus monkey FcγRIIIaS extracellular domain, His-tagged (cynomolgus monkey, UniProt Q8SPW2 21-206 at identity 1.00))
T4 construct: also called cyno FcγRIIIaS; cynoFcγRIIIaS; not shown: C-terminal His-tag
T4 chain: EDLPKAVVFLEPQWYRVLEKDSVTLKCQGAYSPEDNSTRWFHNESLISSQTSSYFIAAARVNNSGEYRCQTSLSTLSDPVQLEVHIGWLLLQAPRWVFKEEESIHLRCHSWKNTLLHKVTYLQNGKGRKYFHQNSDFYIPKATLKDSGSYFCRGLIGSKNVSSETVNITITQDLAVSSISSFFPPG

[5] = target: T5, human FcγRIIIaV extracellular domain, His-tagged (human, UniProt P08637 17-208)
T5 construct: also called FcgRIIIaV; not shown: C-terminal His-tag
T5 sequence (P08637 17-208 F176V): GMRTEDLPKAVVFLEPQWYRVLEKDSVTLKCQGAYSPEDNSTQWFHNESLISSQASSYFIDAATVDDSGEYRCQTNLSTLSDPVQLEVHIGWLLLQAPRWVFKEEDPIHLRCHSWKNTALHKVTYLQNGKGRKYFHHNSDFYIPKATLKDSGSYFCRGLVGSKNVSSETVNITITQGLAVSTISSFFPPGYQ

[6] = target: T6, cynomolgus monkey FcγRIIa3 extracellular domain, His-tagged (cynomolgus monkey)
T6 construct: also called cyno FcγRIIa3; cynoFcgRIIa3; not shown: C-terminal His-tag
T6 chain: T1 chain with K127I, N130K, H133P, Q142R

[7] = target: T7, human FcγRIIb extracellular domain, His-tagged (human, UniProt P31994 43-217)
T7 construct: also called FcgRIIb (human); not shown: C-terminal His-tag
T7 sequence: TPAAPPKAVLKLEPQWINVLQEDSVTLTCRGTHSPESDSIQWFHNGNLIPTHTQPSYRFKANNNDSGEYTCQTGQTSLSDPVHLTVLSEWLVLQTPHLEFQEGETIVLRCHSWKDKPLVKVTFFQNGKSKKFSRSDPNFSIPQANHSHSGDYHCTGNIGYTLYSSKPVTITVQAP

B1: M103205H795-MY473/M103202L889-SK1 (antibody, human IgG1, kappa)
heavy: QVTLKESGPVLVKPTETLTLTCTVSGIDLSHDDISWVRQAPGKGLEWVGIISYAGSTYYASWAKGRLTISKDTSKNQVVLTMTNMDPVDTATYYCARGVPAYSHGGDLWGQGTLVTVSSASTKGPSVFPLAPSSKSTSGGTAALGCLVKDYFPEPVTVSWNSGALTSGVHTFPAVLQSSGLYSLSSVVTVPSSSLGTQTYICNVNHKPSNTKVDKKVEPKSCDKTHTCPPCPTPELLTGPSVFLFPPKPKDTLMISRTPEVTCVVVDVSDEDPEVKFNWYVDGVEVHNAKTKPREEQYNSTYRVVSVLTVLHQDWLNGKEYKCKVSNKALPKPIEKTISKAKGQPREPQVYTLPPSREEMTKNQVSLTCLVKGFYPSDIAVEWESNGQPENNYKTTPPVLDSDGSFFLYSKLTVDKSRWQQGNVFSCSVMHEALHNHYTQKSLSLSP
light: DIVMTQSPATLSLSPGERATLSCTSSQSVYHANWLSWFQQKPGQPPKLLIYWASTLAYGVPSRFSGSGSGTDFTLTISSLQPEDAATYYCAGGYGGGRYAFGQGTKVEIKRTVAAPSVFIFPPSDEQLKSGTASVVCLLNNFYPREAKVQWKVDNALQSGNSQESVTEQDSKDSTYSLSSTLTLSKADYEKHKVYACEVTHQGLSSPVTKSFNRGEC
notes: copies: 2 + 2
**Q.** Which “KD fold (SG1 = 1)” value [1] does the source give for B1 here?
**A.** 2 fold

**Q.** What about the “KD fold (SG1 = 1)” value [2] of the same binder?
**A.** 3.1 fold

**Q.** What about the “KD fold (SG1 = 1)” value [3] of the same binder?
**A.** 2 fold

**Q.** What about the “KD fold (SG1 = 1)” value [4] of the same binder?
**A.** 0.2 fold

**Q.** And the “KD fold (SG1 = 1)” value [5]?
**A.** 0.2 fold

**Q.** What about the “KD fold (SG1 = 1)” value [6] of the same binder?
**A.** 3.1 fold

**Q.** And the “KD fold (SG1 = 1)” value [7]?
**A.** 2.1 fold

B2: M103205H795-MY476/M103202L889-SK1 (antibody, human IgG1, kappa)
heavy: B1 heavy with T233Y
light: B1 light
notes: copies: 2 + 2
**Q.** Which “KD fold (SG1 = 1)” value [1] does the source give for B2 here?
**A.** 3.9 fold

**Q.** And the “KD fold (SG1 = 1)” value [2]?
**A.** 4.9 fold

**Q.** What about the “KD fold (SG1 = 1)” value [3] of the same binder?
**A.** 2.3 fold

**Q.** What about the “KD fold (SG1 = 1)” value [4] of the same binder?
**A.** 0.2 fold

**Q.** And the “KD fold (SG1 = 1)” value [5]?
**A.** 0.1 fold

**Q.** And the “KD fold (SG1 = 1)” value [6]?
**A.** 6.5 fold

**Q.** And the “KD fold (SG1 = 1)” value [7]?
**A.** 3.8 fold

B3: M103205H795-MY475/M103202L889-SK1 (antibody, human IgG1, kappa)
heavy: B1 heavy with T233W
light: B1 light
notes: copies: 2 + 2
**Q.** What does the source list for B3?
**A.** KD fold (SG1 = 1) [1]: 3.1 fold; KD fold (SG1 = 1) [2]: 7.7 fold; KD fold (SG1 = 1) [3]: 3.2 fold; KD fold (SG1 = 1) [4]: 0.2 fold; KD fold (SG1 = 1) [5]: 0.2 fold; KD fold (SG1 = 1) [6]: 7.4 fold; KD fold (SG1 = 1) [7]: 4.2 fold

B4: M103205H795-MY474/M103202L889-SK1 (antibody, human IgG1, kappa)
heavy: B1 heavy with T233V
light: B1 light
notes: copies: 2 + 2
**Q.** For B4, which “KD fold (SG1 = 1)” value [1] is on record?
**A.** 2.8 fold

**Q.** What about the “KD fold (SG1 = 1)” value [2] of the same binder?
**A.** 4.1 fold

**Q.** What about the “KD fold (SG1 = 1)” value [3] of the same binder?
**A.** 1.6 fold

**Q.** What about the “KD fold (SG1 = 1)” value [4] of the same binder?
**A.** 0.2 fold

**Q.** And the “KD fold (SG1 = 1)” value [5]?
**A.** 0.2 fold

**Q.** And the “KD fold (SG1 = 1)” value [6]?
**A.** 3.5 fold

**Q.** What about the “KD fold (SG1 = 1)” value [7] of the same binder?
**A.** 2.3 fold
